Measured values as given in US20030027766A1 (University of Texas, published 2003).
Values belong to the molecule of their own block, whether it stands above or below them.

Experiments:
HLA-A2 [1] = target: T1, HLA-A2 (human); experiment: immunofluorescence staining of ovarian tumor OVA-16
T1 construct: allele written as A*02:01 on that basis; also called HLA-A2.1; A2.1

HLA-A2 [2] = target: T1, HLA-A2; experiment: immunofluorescence staining of ovarian tumor OVA-14
[3] = target: certain MHC Class I heavy chains other than HLA-A2; experiment: cell-based or functional assay
HLA-A2 [4] = target: T1, HLA-A2; experiment: HLA-A2 stabilization on T2 cells, against D113
HLA-A2 [5] = target: T1, HLA-A2; experiment: HLA-A2 stabilization on T2 cells

Molecule: RFRELVSEFSRMAR [C43 (HER-2:968-981)]
inhibition of lysis of OVA-1 tumor (HLA-A2 negative) by autologous CTL-1 after pre-pulsing with peptide [3]: 45%

Molecule: RLLYQGCQVV (Synthetic analog) [D114 = HER-2:47-56(48H->L)]
binding result (HLA-A2 [4]): binds

Molecule: ELVSEVSKV [C81 (analog of HER-2:971-979, F->V, RM->KV)]
binding result (HLA-A2 [5]): binds

Molecule: ELVSEFSRV (Synthetic analog of C85) [C84 (HER-2:971-979(Val))]
binding result (HLA-A2 [5]): binds

Results, then the molecule that gave them:

% HLA-A2 positive cells (HLA-A2 [1]): 85.3%
mean fluorescence (HLA-A2 [1]): 42
% HLA-A2 positive cells (HLA-A2 [2]): 92.1%
mean fluorescence (HLA-A2 [2]): 49
Molecule: mAb MA2.1 (anti-HLA-A2) (antibody)

inhibition of lysis of OVA-1 tumor (HLA-A2 negative) by autologous CTL-1 after pre-pulsing with peptide [3]: 25%
Molecule: RFRELIIEFSRMAR [C44 (analog of HER-2:968-981, VS->II)]

binding result (HLA-A2 [4]): binds
Molecule: GLYQGCQVV (Synthetic analog) [D115 = HER-2:48-56(48H->G)]
